Measurements taken from patent US20250297026A1 (PETMEDIX, published 2025).
Numbering of substitutions follows the chain as printed. Each block holds one binder with its values, some of them ahead of it.

Biological target: T1, canine CD20 (canine, UniProt Q3C2E2 1-297)
T1 chain: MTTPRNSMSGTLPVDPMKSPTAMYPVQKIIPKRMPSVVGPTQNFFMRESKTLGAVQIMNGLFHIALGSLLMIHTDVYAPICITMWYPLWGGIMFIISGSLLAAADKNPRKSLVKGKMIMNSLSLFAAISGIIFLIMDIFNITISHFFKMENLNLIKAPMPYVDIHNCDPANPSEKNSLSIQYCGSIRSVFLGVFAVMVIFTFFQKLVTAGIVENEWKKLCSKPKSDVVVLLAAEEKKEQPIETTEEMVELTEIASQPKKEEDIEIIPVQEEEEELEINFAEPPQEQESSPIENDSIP
Test: cell-based or functional assay

ADCC EC50: 0.12 nM | CDC EC50: 6.8 nM
B2: PMX074 (antibody, V domains shown)
VH: EVQLVESGGDLVKPGGSLRLSCVASGFTFSRYYMTWVRQAPGKGLQWVAYINSDRRSTTYADAVKGRFTISRDNAKNTLYLQMNSLRAEDTAVYYCTTLEYWGQGTLVTVSS
VL: SYVLTQLPSKNVTLKQPAHITCGGDNIGSKSVHWYQQKLGQAPVLIIYYDSRRPTGIPERFSGANSGNTATLTINGALAEDEADYYCQVWDSSANVFGGGTHLTVL
ADCC Maximum killing (%): 51% | CDC Maximum killing (%): 98.9%

ADCC EC50: 0.22 nM | CDC EC50: 9.08 nM
B4: PMX078 (antibody, V domains shown)
VH: EVQLVESGGDLVKPGGSLRLSCVASGLTFSRYHMSWIRQAPGKGLQWVAYISSGGSSTNYAGSVKGRFTVSRDNAKNTLYLQMNSLRAEDTAVYYCTSLDYWGQGTLVTVSS
VL: B2 VL with N75S, A94D
ADCC Maximum killing (%): 40% | CDC Maximum killing (%): 98.8%

ADCC EC50: 0.14 nM | CDC EC50: 7.76 nM
B6: PMX076 (antibody, V domains shown)
VH: EVQLVESGGDLVKPGGSLRLSCVASGITFSRYYMNWVRQAPGKGLQWVAYIDSGGSPTTYADAVKGRFTISRDNAKKALYLQMNSLRAEDTAVYYCTSFDYWGQGTLVTVSS
VL: B2 VL with R52S, N75S, Y86F
ADCC Maximum killing (%): 49% | CDC Maximum killing (%): 98.3%

ADCC EC50: 0.15 nM | CDC EC50: 28.9 nM
B7: PMX071 (antibody, V domains shown)
VH: B6 VH with Q3H, S30N, A40T, K77N, A78T
VL: B2 VL with V44I, S51T, R52S, N75S
ADCC Maximum killing (%): 41% | CDC Maximum killing (%): 94.3%

ADCC EC50: 0.13 nM | CDC EC50: 11.3 nM
B9: PMX067 (antibody, V domains shown)
VH: EIQLVESGGDLVKPGGSLRLSCVASGFTFSRYHMSWVRQAPGKGLQWVAYINTGGSNTNYADAVKGRFTISRDNAKNTLYLQMNSLRAEDTAVYYCTTLDSWGQGTLVTVSS
VL: B2 VL with S9F, N75S, A94V
ADCC Maximum killing (%): 50% | CDC Maximum killing (%): 97.8%

ADCC EC50: 0.13 nM | CDC EC50: 21.9 nM
B11: PMX080 (antibody, V domains shown)
VH: B6 VH with I27L, T59N, K77N, A78T, T97S
VL: B2 VL with L4V, K10N, N11T, N75S
ADCC Maximum killing (%): 50% | CDC Maximum killing (%): 96.2%

ADCC EC50: 0.12 nM | CDC EC50: 16.4 nM
B12: PMX079 (antibody, V domains shown)
VH: B9 VH with I2V, F27L, Y50F, T53S, G55R, N57D, N59T, L99F, S101Y
VL: B2 VL with V44A, R52S, N75S
ADCC Maximum killing (%): 52% | CDC Maximum killing (%): 96.7%

Second part, the binder before the results:

B1: PMX066 (antibody, V domains shown)
VH: AVQLVESGGDLVKPGGSLRLSCVASGITFSRYHMSWVRQAPGKGLQWVAYINSGGSATSYTDAVKGRFSISRDNGKNTLYLQMNSLRVEDSAVYYCTTLDLWGQGTLVTVSS
VL: B2 VL with V89M
ADCC EC50: 0.15 nM | ADCC Maximum killing (%): 47% | CDC EC50: 12.1 nM | CDC Maximum killing (%): 98.5%

B3: PMX072 (antibody, V domains shown)
VH: B9 VH with I2V, Y50F, G55R, N57S, K65A, T97S, S101Y
VL: B2 VL with R52S, N75S
ADCC EC50: 0.18 nM | ADCC Maximum killing (%): 50% | CDC EC50: 19.6 nM | CDC Maximum killing (%): 91.6%

B5: PMX075 (antibody, V domains shown)
VH: EVQLVESGGDLVKPGGSLRLSCVASGITFSRYHMSWVRQAPGKGLQWVAFINTGRSSTNYADAVAGRFTISRDNAKNTLYLQMNGLTVEDTAVYYCSTLDYWGQGTLVTVSS
VL: B2 VL with N11S, V44I, S51N, R52N, N75S, Q88H, A94V
ADCC EC50: 0.14 nM | ADCC Maximum killing (%): 46% | CDC EC50: 6.02 nM | CDC Maximum killing (%): 98.9%

B8: PMX081 (antibody, V domains shown)
VH: EVQLVQSGGDLVKPGGSLRLSCVASGYTFTRYHMSWVRQAPGKGLQWVAFINSDGTGITYGDAVKGRFTISRDNAKNTLYLQMNSLRAEDTAIYYCTTFDSWGQGTLVTVSS
VL: B2 VL with V44I, N75S, A94G
ADCC EC50: 0.16 nM | ADCC Maximum killing (%): 51% | CDC EC50: 10.6 nM | CDC Maximum killing (%): 98.5%

B10: PMX069 (antibody, V domains shown)
VH: EMQLVESGGALVKPGGSLRLSCVASGFTFRRYHMSWVRQAPGQGLQWVAYIDSDGSPTSYGDSVKGRFTISRDNAKNTLFLQMNSLRVDDTAVYYCTTLDYWGRGTLVTVSS
VL: B2 VL with L7V, S29G, V44L, S51T, N75S, G76R, A94G, L106I
ADCC EC50: 0.09 nM | ADCC Maximum killing (%): 38% | CDC EC50: 7.6 nM | CDC Maximum killing (%): 98.2%

B13: PMX073 (antibody, V domains shown)
VH: B6 VH with I27F, Y50F, D52T, P57S, T59S, A61G, K77N, A78T
VL: B2 VL with D50A, R52S, N75S
ADCC EC50: 0.21 nM | ADCC Maximum killing (%): 48% | CDC EC50: 11.1 nM | CDC Maximum killing (%): 96.3%

B14: PMX077 (antibody, V domains shown)
VH: B6 VH with D52N, K77N, A78T
VL: B2 VL with V44I, S51T, R52S, N75S
ADCC EC50: 0.13 nM | ADCC Maximum killing (%): 42% | CDC EC50: 9.84 nM | CDC Maximum killing (%): 98.7%
